From patent publication US20240016943

Legend:
[1] = target: BLI1-Z (UniProt P61244); assay: competition; conditions: vs MAX; 50% at 500 nM in Table 16
[2] = system: T1, B12-Z6; assay: competition; conditions: vs MAX
T1 sequence 1: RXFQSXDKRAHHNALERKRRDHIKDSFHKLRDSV
T1 sequence 2: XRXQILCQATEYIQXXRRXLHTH

[3] = system: T2, B1-Z2 helical tetramer; assay: competition; conditions: helical tetramer vs MAX
T2 sequence 1: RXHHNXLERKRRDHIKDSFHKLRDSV
T2 sequence 2: XAQILCKATEYIQXMRRXN

[4] = target: T3, BLI1-ZL1 (UniProt P61244+P61244); assay: competition; conditions: vs MAX
[5] = system: B11-ZM4; assay: competition; conditions: vs MAX
[6] = target: STR118 (B11-Z8) (UniProt P61244); assay: competition; conditions: vs MAX/MAX 30 nM; Table 15 gives 79 for B11-Z8; vs MYC/MAX 170 nM
[7] = target: B10-Z6 (UniProt P61244); assay: competition; conditions: vs MAX
[8] = target: BMADs-Z (UniProt P61244); assay: competition; conditions: MAX competition at 500 nM
[9] = target: BMYC-Z (UniProt P61244); assay: competition; conditions: MAX competition at 500 nM
[10] = target: BMYCs-Z (UniProt P61244); assay: competition; conditions: MAX competition at 500 nM
[11] = target: STR116 (B11-Z6) (UniProt P61244); assay: competition; conditions: vs MAX/MAX 30 nM; Table 15 gives 65 for B11-Z6 (conflict); vs MYC/MAX 1.0 uM
[12] = target: BLI1s-Z (UniProt P61244); assay: competition; conditions: MAX competition at 500 nM
[13] = target: B-ZM4 (UniProt P61244); assay: competition; conditions: MAX competition at 500 nM
[14] = target: BMAD-Z (UniProt P61244); assay: competition; conditions: MAX competition at 500 nM
[15] = target: BLI1-ZM4 (UniProt P61244); assay: competition; conditions: vs MAX
[16] = system: BLI2-Z; assay: competition; conditions: MAX competition at 500 nM
[17] = target: B11-Z4 (UniProt P61244); assay: competition; conditions: vs MAX
[18] = target: B11s-Z8 (UniProt P61244); assay: EMSA; conditions: method inferred
[19] = system: T4, B2-Z; assay: EMSA; conditions: apparent; Table 14 gives 15
T4 sequence 1: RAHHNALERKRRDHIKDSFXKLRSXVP
T4 sequence 2: XRAQILCKATEYIQYXRRK

[20] = target: B-Z3 (UniProt P61244); assay: EMSA; conditions: apparent; Table 14 gives 15
[21] = target: B11-Z10 (UniProt P61244); assay: EMSA; conditions: method inferred
[22] = system: T5, B7-Z4; assay: EMSA
T5 sequence 1: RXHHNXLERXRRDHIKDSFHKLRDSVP
T5 sequence 2: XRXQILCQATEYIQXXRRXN

[23] = system: T6, B2-Z2; assay: EMSA
T6 sequence 1: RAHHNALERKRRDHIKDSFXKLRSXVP
T6 sequence 2: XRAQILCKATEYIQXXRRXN

[24] = target: BLI1-Z (UniProt P61244); assay: EMSA; conditions: apparent; Table 14 gives 12
[25] = target: B-Z4 (UniProt P61244); assay: EMSA; conditions: apparent; Table 14 gives 14
[26] = system: T1, B12-Z6; assay: EMSA
[27] = system: T2, B1-Z2 helical tetramer; assay: EMSA
[28] = target: T3, BLI1-ZL1; assay: EMSA; conditions: 95% CI 14-35; Table 14 gives 19
[29] = system: B11-ZM4; assay: EMSA
[30] = system: T7, B1-Z1; assay: EMSA
T7 sequence 1: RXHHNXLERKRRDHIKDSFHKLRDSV
T7 sequence 2: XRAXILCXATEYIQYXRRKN

[31] = target: BLI2-ZL1 (UniProt P61244); assay: EMSA; conditions: 500 nM sDBD
[32] = target: B11-Z7 (UniProt P61244); assay: EMSA
[33] = system: T8, B1-Z2; assay: EMSA; conditions: 95% CI 22-29
T8 sequence 1: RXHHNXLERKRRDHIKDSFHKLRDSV
T8 sequence 2: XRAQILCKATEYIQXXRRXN

[34] = system: T9, B1 (stapled MAX basic helix alone); assay: EMSA; conditions: stapled basic helix alone
T9 sequence: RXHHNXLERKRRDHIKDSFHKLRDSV

[35] = target: STR118 (B11-Z8) (UniProt P61244); assay: EMSA; conditions: 95% CI 3.0-4.0; B11-Z8 4.2 in Table 14
[36] = target: BLI1-ZM5 (UniProt P61244); assay: EMSA
[37] = target: B-Z helical tetramer (UniProt P61244+P61244); assay: EMSA
[38] = target: B-Z1 (UniProt P61244); assay: EMSA; conditions: apparent; Table 14 gives 45
[39] = system: T10, B8-Z4; assay: EMSA
T10 sequence 1: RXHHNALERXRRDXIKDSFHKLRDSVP
T10 sequence 2: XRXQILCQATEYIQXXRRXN

[40] = target: B10-Z6 (UniProt P61244); assay: EMSA
[41] = target: B-Z2 (UniProt P61244); assay: EMSA; conditions: apparent; Table 14 gives 22
[42] = target: B-Z5 (C-terminally truncated zipper) (UniProt P61244); assay: EMSA; conditions: apparent; Table 14 gives 88
[43] = target: BMADs-Z (UniProt P61244); assay: EMSA; conditions: 25 nM sDBD; listed twice, second value 82% (possibly BMAD-Z)
[44] = target: BMYCs-Z (UniProt P61244); assay: EMSA; conditions: 25 nM sDBD; listed twice, second value 19% (possibly BMYC-Z)
[45] = target: STR116 (B11-Z6) (UniProt P61244); assay: EMSA; conditions: 95% CI 13-16; B11-Z6 14 in Table 14
[46] = system: T11, B8-Z; assay: EMSA; conditions: apparent; Table 14 gives 672 (conflict)
T11 sequence 1: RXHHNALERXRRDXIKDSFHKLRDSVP
T11 sequence 2: XRAQILCKATEYIQYXRRK

[47] = target: BLI1s-Z (UniProt P61244); assay: EMSA; conditions: 25 nM sDBD
[48] = target: B-ZM4 (UniProt P61244); assay: EMSA
[49] = system: T12, B6-Z4; assay: EMSA; conditions: 95% CI 49-66
T12 sequence 1: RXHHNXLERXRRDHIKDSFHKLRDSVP
T12 sequence 2: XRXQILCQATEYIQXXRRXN

[50] = target: B (MAX basic helix alone) (UniProt P61244); assay: EMSA; conditions: basic helix alone
[51] = target: B11-Z70 (UniProt P61244); assay: EMSA; conditions: method inferred
[52] = system: T13, B5-Z4; assay: EMSA; conditions: 95% CI 98-126; Table 14 gives 118
T13 sequence 1: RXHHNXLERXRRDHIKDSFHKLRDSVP
T13 sequence 2: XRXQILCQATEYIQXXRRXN

[53] = target: B11-Z81 (UniProt P61244); assay: EMSA; conditions: method inferred
[54] = system: T14, B1-Z4; assay: EMSA; conditions: 95% CI 37-43
T14 sequence 1: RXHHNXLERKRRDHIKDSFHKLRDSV
T14 sequence 2: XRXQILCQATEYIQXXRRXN

[55] = system: T15, B1-Z; assay: EMSA; conditions: apparent; Table 14 gives 17
T15 sequence 1: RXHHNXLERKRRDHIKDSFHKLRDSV
T15 sequence 2: XRAQILCKATEYIQYXRRK

[56] = system: T16, B3-Z; assay: EMSA; conditions: apparent; Table 14 gives 76
T16 sequence 1: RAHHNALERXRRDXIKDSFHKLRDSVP
T16 sequence 2: XRAQILCKATEYIQYXRRK

[57] = target: BLI1-ZM4 (UniProt P61244); assay: EMSA
[58] = system: T17, B4-Z; assay: EMSA; conditions: apparent; Table 14 gives 25 (conflict)
T17 sequence 1: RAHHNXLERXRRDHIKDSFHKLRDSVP
T17 sequence 2: XRAQILCKATEYIQYXRRK

[59] = target: B-ZL1 (UniProt P61244+P61244); assay: EMSA; conditions: listed as B-ZLI1; Table 14 gives 19
[60] = target: B-Z (MAX-derived STR, cross-dimer) (UniProt P61244); assay: EMSA; conditions: 95% CI 13-19; also 16 in Tables 12, 14; 20 mM HEPES pH 8.0, 150 mM NaCl, 2 mM MgCl2
[61] = system: T18, B7-Z; assay: EMSA; conditions: apparent; Table 14 gives 173
T18 sequence 1: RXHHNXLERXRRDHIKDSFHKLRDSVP
T18 sequence 2: XRAQILCKATEYIQYXRRK

[62] = target: B-ZM3 (UniProt P61244+P61244); assay: EMSA; conditions: 25 nM sDBD
[63] = system: BLI2-Z; assay: EMSA; conditions: 500 nM sDBD
[64] = system: T19, B2-Z4; assay: EMSA
T19 sequence 1: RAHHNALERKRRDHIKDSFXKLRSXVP
T19 sequence 2: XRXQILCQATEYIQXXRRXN

[65] = target: B11-Z80 (STR1180) (UniProt P61244); assay: EMSA; conditions: method inferred
[66] = target: B11-Z4 (UniProt P61244); assay: EMSA; conditions: 95% CI 16-20; Table 14 gives 38

**Q.** With E-box probe as the substance, how does the IC50 [1] read?
**A.** 905 nM

**Q.** And the IC50 [2]?
**A.** 62 nM

**Q.** What about the IC50 [3] of the same substance?
**A.** 1100 nM

**Q.** What about the IC50 [4] of the same substance?
**A.** 935 nM

**Q.** What about the IC50 [5] of the same substance?
**A.** 560 nM

**Q.** What about the IC50 [6] of the same substance?
**A.** 61 nM

**Q.** What about the IC50 [7] of the same substance?
**A.** 326 nM

**Q.** And the activity [8]?
**A.** 24%

**Q.** And the activity [9]?
**A.** 9%

**Q.** What about the activity [10] of the same substance?
**A.** 7%

**Q.** What about the IC50 [11] of the same substance?
**A.** 400 nM

**Q.** What about the activity [12] of the same substance?
**A.** 22%

**Q.** What about the activity [13] of the same substance?
**A.** 41%

**Q.** What about the activity [14] of the same substance?
**A.** 66%

**Q.** And the IC50 [15]?
**A.** 560 nM

**Q.** And the activity [16]?
**A.** 16%

**Q.** What about the IC50 [17] of the same substance?
**A.** 496 nM

**Q.** And the Kd [18]?
**A.** 6.5 nM

**Q.** And the Kd [19]?
**A.** 19 nM

**Q.** What about the Kd [20] of the same substance?
**A.** 18 nM

**Q.** What about the Kd [21] of the same substance?
**A.** 4.8 nM

**Q.** And the Kd [22]?
**A.** 234 nM

**Q.** And the Kd [23]?
**A.** 18 nM

**Q.** And the Kd [24]?
**A.** 8.3 nM

**Q.** What about the Kd [25] of the same substance?
**A.** 20 nM

**Q.** And the Kd [26]?
**A.** 8 nM

**Q.** What about the Kd [27] of the same substance?
**A.** 1.8 nM

**Q.** And the Kd [28]?
**A.** 25 nM

**Q.** And the Kd [29]?
**A.** 21 nM

**Q.** And the Kd [30]?
**A.** 49 nM

**Q.** What about the binding signal [31] of the same substance?
**A.** 54 % bound

**Q.** What about the Kd [32] of the same substance?
**A.** 22 nM

**Q.** And the Kd [33]?
**A.** 26 nM

**Q.** And the Kd [34]?
**A.** > 2000 nM

**Q.** What about the Kd [35] of the same substance?
**A.** 3.5 nM

**Q.** And the Kd [36]?
**A.** 2.8 nM

**Q.** And the Kd [37]?
**A.** 2 nM

**Q.** What about the Kd [38] of the same substance?
**A.** 58 nM

**Q.** And the Kd [39]?
**A.** 164 nM

**Q.** What about the Kd [40] of the same substance?
**A.** 16 nM

**Q.** And the Kd [41]?
**A.** 22 nM

**Q.** And the Kd [42]?
**A.** 98 nM

**Q.** And the binding signal [43]?
**A.** 63 % bound

**Q.** And the binding signal [44]?
**A.** 27 % bound

**Q.** What about the Kd [45] of the same substance?
**A.** 14 nM

**Q.** What about the Kd [46] of the same substance?
**A.** 66 nM

**Q.** And the binding signal [47]?
**A.** 50 % bound

**Q.** What about the Kd [48] of the same substance?
**A.** 8 nM

**Q.** And the Kd [49]?
**A.** 57 nM

**Q.** What about the Kd [50] of the same substance?
**A.** > 2000 nM

**Q.** What about the Kd [51] of the same substance?
**A.** 11 nM

**Q.** What about the Kd [52] of the same substance?
**A.** 111 nM

**Q.** And the Kd [53]?
**A.** > 100 nM

**Q.** What about the Kd [54] of the same substance?
**A.** 40 nM

**Q.** And the Kd [55]?
**A.** 18 nM

**Q.** And the Kd [56]?
**A.** 77 nM

**Q.** And the Kd [57]?
**A.** 10 nM

**Q.** What about the Kd [58] of the same substance?
**A.** 239 nM

**Q.** And the Kd [59]?
**A.** 20 nM

**Q.** And the Kd [60]?
**A.** 16 nM

**Q.** And the Kd [61]?
**A.** 169 nM

**Q.** What about the binding signal [62] of the same substance?
**A.** 53 % bound

**Q.** What about the binding signal [63] of the same substance?
**A.** 72 % bound

**Q.** And the Kd [64]?
**A.** 15 nM

**Q.** And the Kd [65]?
**A.** 2.7 nM

**Q.** What about the Kd [66] of the same substance?
**A.** 18 nM
